The values that follow come from publication PMC8338886 (Clinical Cancer Research, 2021).

This test deals with T1, Human PD-L2 (human, UniProt Q9BQ51).
T1 sequence: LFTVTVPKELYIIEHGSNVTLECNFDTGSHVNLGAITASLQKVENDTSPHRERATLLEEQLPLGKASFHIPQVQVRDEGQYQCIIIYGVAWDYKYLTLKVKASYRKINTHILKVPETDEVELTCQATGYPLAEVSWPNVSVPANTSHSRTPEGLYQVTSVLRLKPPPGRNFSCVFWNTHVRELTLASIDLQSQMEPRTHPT
In words: SPR. For orientation: In SPR one partner is held on a chip, and binding of the other changes the refractive index at the surface.

B1: sPD-1V1 Fc (Fc fusion)
chain: LDSPDRPWNPPTFSPALLVVTEGDNATFTCSFSNTSESFVLNWYRMSPSNQTDKLAAFPEDRGQLGQDCRFRVTQLPNGRDFHMSVVRARRSDSGTYLCSAIVLAPKIQIKESLRVELRVTERRAEVPTAHPSPSPRPAGQFQTLV
Broadly, the Kd is the equilibrium constant for the complex coming apart. Low values mean tighter binding, high ones weaker binding. B1 gave a Kd of 2.95 nM.

B2: sPD-1V2 Fc (Fc fusion)
chain: LDSPDRPWNPPTFSPALLVVTEGDNATFTCSFSNTSESFVLNWYRMSPSNQTDKLAAFPEDRGQLGQDCRFRVTQLPNGRDFHMSVVRARRNDSGTYLCSAIVLAPKIQIKESLRVELRVTERRAEVPTAHPSPSPRPAGQFQTLV
For B2, the affinity, expressed as Kd, was 3.4 nM.
